Measurements published in patent US20190241659A1 (AstraZeneca / MedImmune, published 2019).

Tests used:
[1] = molecular target: T1, human CD40 on the cell surface (CD40 transfected HEK293 cells, Ramos human B cells, other CD40-bearing cells) (human, UniProt P25942 21-277); assay: flow cytometry, Alexa 647 conjugate on CD40 transfected 293 cells
T1 construct: the transfected construct is not described further

[2] = molecular target: T2, CD40-Fc protein (Sino-Biological), biotinylated (Homo sapiens (Human), UniProt P25942 21-193, biotinylated in the lab (sites not given) when used for capture); assay: Octet (BLI); G4P-PDL1 held on captured hPDL1-His, then CD40-Fc 100nM
T2 construct: Bought; also called CD40-biotin; not shown: Fc of the purchased CD40-Fc
T2 sequence (P25942 21-193): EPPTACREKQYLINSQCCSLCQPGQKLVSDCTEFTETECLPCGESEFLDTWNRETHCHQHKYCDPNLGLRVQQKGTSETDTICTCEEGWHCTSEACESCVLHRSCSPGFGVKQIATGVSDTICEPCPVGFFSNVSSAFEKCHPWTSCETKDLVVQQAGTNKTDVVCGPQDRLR

T1 sequence (P25942 21-277 limits assumed): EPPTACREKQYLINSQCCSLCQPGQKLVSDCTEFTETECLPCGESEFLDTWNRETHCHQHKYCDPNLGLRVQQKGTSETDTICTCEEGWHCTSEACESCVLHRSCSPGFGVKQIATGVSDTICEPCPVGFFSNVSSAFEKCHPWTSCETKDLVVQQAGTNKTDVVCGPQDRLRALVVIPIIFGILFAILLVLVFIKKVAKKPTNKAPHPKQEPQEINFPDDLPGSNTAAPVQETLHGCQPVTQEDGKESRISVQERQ

B1: anti-PDL1 (MEDI4736) in human IgG4 isotype (antibody, V domains shown)
VH: EVQLVESGGGLVQPGGSLRLSCAASGFTFSRYWMSWVRQAPGKGLEWVANIKQDGSEKYYVDSVKGRFTISRDNAKNSLYLQMNSLRAEDTAVYYCAREGGWFGELAFDYWGQGTLVTVSS
VL: EIVLTQSPGTLSLSPGERATLSCRASQRVSSSYLAWYQQKPGQAPRLLIYDASSRATGIPDRFSGSGSGTDFTLTISRLEPEDFAVYYCQQYGSLPWTFGQGTKVEIKR
notes: Human IgG4 (228P) format of MEDI4736; also called MEDI4736 IgG4; anti-PD-L1 (MED4736)
B1: no binding (tested: about 4x10^4 pM) [1]; no binding (tested: 100 nM CD40-Fc) [2].
